Laboratory results taken from the supplement of paper PMC11246515.
± gives the standard deviation of the averaged measurements.

Assay: total protein half-life in vivo (active degradation + dilution); higher = more stable protein
[1] = E. coli NCM3722 delta-clpP delta-lon delta-hslV, growth: N-lim chemostat, doubling time 6 h
[2] = E. coli NCM3722 delta-clpP, growth: N-lim chemostat, doubling time 6 h
[3] = E. coli NCM3722 delta-hslV, growth: N-lim chemostat, doubling time 6 h
[4] = E. coli NCM3722 delta-lon, growth: N-lim chemostat, doubling time 6 h
[5] = E. coli NCM3722 delta-smpB, growth: N-lim chemostat, doubling time 6 h
[6] = wild type E. coli NCM3722, growth: C-lim chemostat, doubling time 3 h
[7] = wild type E. coli NCM3722, growth: C-lim chemostat, doubling time 6 h
[8] = wild type E. coli NCM3722, growth: C-lim chemostat, doubling time 12 h
[9] = wild type E. coli NCM3722, growth: N-lim chemostat, doubling time 6 h
[10] = wild type E. coli NCM3722, growth: N-lim chemostat, doubling time 12 h
[11] = wild type E. coli NCM3722, growth: P-lim chemostat, doubling time 6 h
[12] = wild type E. coli NCM3722, growth: P-lim chemostat, doubling time 12 h

Sequence	total protein half-life in vivo [1]	total protein half-life in vivo [2]	total protein half-life in vivo [3]	total protein half-life in vivo [4]	total protein half-life in vivo [5]	total protein half-life in vivo [6]	total protein half-life in vivo [7]	total protein half-life in vivo [8]	total protein half-life in vivo [9]	total protein half-life in vivo [10]	total protein half-life in vivo [11]	total protein half-life in vivo [12]
MKHYSIQPANLEFNAEGTPVSRDFDDVYFSNDNGLEETRYVFLGGNQLEVRFPEHPHPLFVVAESGFGTGLNFLTLWQAFDQFREAHPQAQLQRLHFISFEKFPLTRADLALAHQHWPELAPWAEQLQAQWPMPLPGCHRLLLDEGRVTLDLWFGDINELTSQLDDSLNQKVDAWFLDGFAPAKNPDMWTQNLFNAMARLARPGGTLATFTSAGFVRRGLQDAGFTMQKRKGFGRKREMLCGVMEQTLPLPCSAPWFNRTGSSKREAAIIGGGIASALLSLALLRRGWQVTLYCADEAPALGASGNRQGALYPLLSKHDEALNRFFSNAFTFARRFYDQLPVKFDHDWCGVTQLGWDEKSQHKIAQMLSMDLPAELAVAVEANAVEQITGVATNCSGITYPQGGWLCPAELTRNVLELAQQQGLQIYYQYQLQNLSRKDDCWLLNFAGDQQATHSVVVLANGHQISRFSQTSTLPVYSVAGQVSHIPTTPELAELKQVLCYDGYLTPQNPANQHHCIGASYHRGSEDTAYSEDDQQQNRQRLIDCFPQAQWAKEVDVSDKEARCGVRCATRDHLPMVGNVPDYEATLVEYASLAEQKDEAVSAPVFDDLFMFAALGSRGLCSAPLCAEILAAQMSDEPIPMDASTLAALNPNRLWVRKLLKGKAVKAG	4.59 ± 0.099 h	4.792 ± 0.021 h	4.36 ± 0.24 h	4.42 ± 0.19 h	3.84 ± 0.39 h	2.83 ± 0.03 h	5.48 ± 0.74 h	9.73 ± 0.51 h	4.41 ± 0.17 h	8.97 ± 0.84 h	4.57 ± 0.22 h	7.48 ± 1 h
MIKVLIVDDEPLARENLRVFLQEQSDIEIVGECSNAVEGIGAVHKLRPDVLFLDIQMPRISGLEMVGMLDPEHRPYIVFLTAFDEYAIKAFEEHAFDYLLKPIDEARLEKTLARLRQERSKQDVSLLPENQQALKFIPCTGHSRIYLLQMKDVAFVSSRMSGVYVTSHEGKEGFTELTLRTLESRTPLLRCHRQYLVNLAHLQEIRLEDNGQAELILRNGLTVPVSRRYLKSLKEAIGL [P0AFT5]	5.88 h	4.54 ± 0.31 h	–	5.56 h	3.83 h	3.04 ± 0.45 h	5.55 ± 0.23 h	–	5.02 ± 0.13 h	7.03 ± 0.46 h	–	10.1 ± 0.16 h
MNVLRSGIVTMLLLAAFSVQAACTWPAWEQFKKDYISQEGRVIDPSDARKITTSEGQSYGMFSALAANDRAAFDNILDWTQNNLAQGSLKERLPAWLWGKKENSKWEVLDSNSASDGDVWMAWSLLEAGRLWKEQRYTDIGSALLKRIAREEVVTVPGLGSMLLPGKVGFAEDNSWRFNPSYLPPTLAQYFTRFGAPWTTLRETNQRLLLETAPKGFSPDWVRYEKDKGWQLKAEKTLISSYDAIRVYMWVGMMPDSDPQKARMLNRFKPMATFTEKNGYPPEKVDVATGKAQGKGPVGFSAAMLPFLQNRDAQAVQRQRVADNFPGSDAYYNYVLTLFGQGWDQHRFRFSTKGELLPDWGQECANSH	5.88 ± 0.14 h	6.89 ± 0.16 h	6.78 ± 0.68 h	6.5 ± 0.64 h	5.684 ± 0.013 h	3.19 ± 0.12 h	6.41 ± 0.42 h	–	6.48 ± 1.2 h	14 ± 0.56 h	5.86 ± 0.12 h	12.7 ± 0.61 h
MRHCGWLLGLLSLFSLATHASDWQEIKNEAKGQTVWFNAWGGDTAINRYLDWVSGEMKTHYAINLKIVRLADAADAVKRIQTEAAAGRKTGGSVDLLWVNGENFRTLKEANLLQTGWAETLPNWRYVDTQLPVREDFSVPTQGAESPWGGAQLTFIARRDVTPQPPQTPQALLEFAKANPGTVTYPRPPDFTGTAFLEQLLIMLTPDPAALKEAPDDATFARVTAPLWQYLDVLHPYLWREGKDFPPSPARMDALLKAGTLRLSLTFNPAHAQQKIASGDLPASSYSFGFREGMIGNVHFVTIPANANASAAAKVVANFLLSPDAQLRKADPAVWGDPSVLDPQKLPDGQRESLQSRMPQDLPPVLAEPHAGWVNALEQEWLHRYGTH	5.63 ± 0.51 h	6.09 ± 0.099 h	6.22 ± 0.27 h	6.17 ± 0.65 h	5.628 ± 0.055 h	3.45 ± 0.33 h	6.17 ± 0.22 h	13.7 ± 0.41 h	6.027 ± 0.021 h	13.4 ± 0.98 h	6.54 ± 0.45 h	12.3 ± 1.5 h
MSELSQLSPQPLWDIFAKICSIPHPSYHEEQLAEYIVGWAKEKGFHVERDQVGNILIRKPATAGMENRKPVVLQAHLDMVPQKNNDTVHDFTKDPIQPYIDGEWVKARGTTLGADNGIGMASALAVLADENVVHGPLEVLLTMTEEAGMDGAFGLQGNWLQADILINTDSEEEGEIYMGCAGGIDFTSNLHLDREAVPAGFETFKLTLKGLKGGHSGGEIHVGLGNANKLLVRFLAGHAEELDLRLIDFNGGTLRNAIPREAFATIAVAADKVDVLKSLVNTYQEILKNELAEKEKNLALLLDSVANDKAALIAKSRDTFIRLLNATPNGVIRNSDVAKGVVETSLNVGVVTMTDNNVEIHCLIRSLIDSGKDYVVSMLDSLGKLAGAKTEAKGAYPGWQPDANSPVMHLVRETYQRLFNKTPNIQIIHAGLECGLFKKPYPEMDMVSIGPTITGPHSPDEQVHIESVGHYWTLLTELLKEIPAK	4.741 ± 0.0055 h	4.94 ± 0.75 h	5.28 ± 0.26 h	4.816 ± 0.018 h	4.53 ± 0.12 h	3.09 ± 0.14 h	5.61 ± 0.4 h	11.1 ± 0.36 h	4.81 ± 0.18 h	8.14 ± 0.0087 h	5.88 ± 0.37 h	13.7 ± 3.1 h
MSNQEPATILLIDDHPMLRTGVKQLISMAPDITVVGEASNGEQGIELAESLDPDLILLDLNMPGMNGLETLDKLREKSLSGRIVVFSVSNHEEDVVTALKRGADGYLLKDMEPEDLLKALHQAAAGEMVLSEALTPVLAASLRANRATTERDVNQLTPRERDILKLIAQGLPNKMIARRLDITESTVKVHVKHMLKKMKLKSRVEAAVWVHQERIF [P0AF28]	6.09 ± 2.1 h	5.77 ± 2.1 h	4.05 ± 0.41 h	4.81 ± 0.33 h	4.166 ± 0.011 h	3.06 ± 0.19 h	5.03 ± 0.15 h	10.1 ± 1.3 h	4.19 ± 0.087 h	7.26 ± 0.29 h	5.39 ± 0.99 h	9.74 ± 1.3 h
MDKSKRHLAWWVVGLLAVAAIVAWWLLRPAGVPEGFAVSNGRIEATEVDIASKIAGRIDTILVKEGKFVREGEVLAKMDTRVLQEQRLEAIAQIKEAQSAVAAAQALLEQRQSETRAAQSLVNQRQAELDSVAKRHTRSRSLAQRGAISAQQLDDDRAAAESARAALESAKAQVSASKAAIEAARTNIIQAQTRVEAAQATERRIAADIDDSELKAPRDGRVQYRVAEPGEVLAAGGRVLNMVDLSDVYMTFFLPTEQAGTLKLGGEARLILDAAPDLRIPATISFVASVAQFTPKTVETSDERLKLMFRVKARIPPELLQQHLEYVKTGLPGVAWVRVNEELPWPDDLVVRLPQ	7.13 ± 1.2 h	6.23 ± 0.4 h	6.68 ± 0.17 h	6.78 ± 0.59 h	5.93 ± 0.0093 h	3.27 ± 0.32 h	6.21 ± 0.2 h	13 ± 1 h	6.37 ± 0.43 h	13.5 ± 1.4 h	6.03 ± 0.35 h	12.9 ± 0.49 h
MTELAQLQASAEQAAALLKAMSHPKRLLILCMLSGSPGTSAGELTRITGLSASATSQHLARMRDEGLIDSQRDAQRILYSIKNEAVNAIIATLKNVYCP	–	–	–	–	–	–	–	–	–	–	–	9.02 h
MLKRLLKRPSLNLLAWLLLAAFYISICLNIAFFKQVLQALPLDSLHNVLVFLSMPVVAFSVINIVLTLSSFLWLNRPLACLFILVGAAAQYFIMTYGIVIDRSMIANIIDTTPAESYALMTPQMLLTLGFSGVLAALIACWIKIKPATSRLRSVLFRGANILVSVLLILLVAALFYKDYASLFRNNKELVKSLSPSNSIVASWSWYSHQRLANLPLVRIGEDAHRNPLMQNEKRKNLTILIVGETSRAENFSLNGYPRETNPRLAKDNVVYFPNTASCGTATAVSVPCMFSDMPREHYKEELAQHQEGVLDIIQRAGINVLWNDNDGGCKGACDRVPHQNVTALNLPDQCINGECYDEVLFHGLEEYINNLQGDGVIVLHTIGSHGPTYYNRYPPQFRKFTPTCDTNEIQTCTKEQLVNTYDNTLVYVDYIVDKAINLLKEHQDKFTTSLVYLSDHGESLGENGIYLHGLPYAIAPDSQKQVPMLLWLSEDYQKRYQVDQNCLQKQAQTQHYSQDNLFSTLLGLTGVETKYYQAADDILQTCRRVSE	7.04 ± 1.1 h	–	6.05 ± 0.36 h	6.41 ± 0.43 h	6.19 ± 0.59 h	3.22 ± 0.046 h	6.12 ± 0.22 h	10.7 ± 1.6 h	6.42 ± 0.21 h	12.3 ± 0.34 h	6.03 ± 0.31 h	13 ± 0.68 h
MLNTLIVGASGYAGAELVTYVNRHPHMNITALTVSAQSNDAGKLISDLHPQLKGIVDLPLQPMSDISEFSPGVDVVFLATAHEVSHDLAPQFLEAGCVVFDLSGAFRVNDATFYEKYYGFTHQYPELLEQAAYGLAEWCGNKLKEANLIAVPGCYPTAAQLALKPLIDADLLDLNQWPVINATSGVSGAGRKAAISNSFCEVSLQPYGVFTHRHQPEIATHLGADVIFTPHLGNFPRGILETITCRLKSGVTQAQVAQVLQQAYAHKPLVRLYDKGVPALKNVVGLPFCDIGFAVQGEHLIIVATEDNLLKGAAAQAVQCANIRFGYAETQSLI	3.94 ± 0.2 h	> 8 h	3.34 ± 0.5 h	4.24 ± 0.74 h	3.24 ± 0.057 h	2.67 ± 0.42 h	5.7 ± 1.4 h	9.58 ± 0.43 h	3.24 h	5.58 h	5.06 ± 0.19 h	9.57 ± 0.58 h
MSSMTTTDNKAFLNELARLVGSSHLLTDPAKTARYRKGFRSGQGDALAVVFPGSLLELWRVLKACVTADKIILMQAANTGLTEGSTPNGNDYDRDVVIISTLRLDKLHVLGKGEQVLAYPGTTLYSLEKALKPLGREPHSVIGSSCIGASVIGGICNNSGGSLVQRGPAYTEMSLFARINEDGKLTLVNHLGIDLGETPEQILSKLDDDRIKDDDVRHDGRHAHDYDYVHRVRDIEADTPARYNADPDRLFESSGCAGKLAVFAVRLDTFEAEKNQQVFYIGTNQPEVLTEIRRHILANFENLPVAGEYMHRDIYDIAEKYGKDTFLMIDKLGTDKMPFFFNLKGRTDAMLEKVKFFRPHFTDRAMQKFGHLFPSHLPPRMKNWRDKYEHHLLLKMAGDGVGEAKSWLVDYFKQAEGDFFVCTPEEGSKAFLHRFAAAGAAIRYQAVHSDEVEDILALDIALRRNDTEWYEHLPPEIDSQLVHKLYYGHFMCYVFHQDYIVKKGVDVHALKEQMLELLQQRGAQYPAEHNVGHLYKAPETLQKFYRENDPTNSMNPGIGKTSKRKNWQEVE	6.43 ± 0.27 h	6.81 ± 1 h	5.82 ± 0.25 h	5.72 ± 0.37 h	5.06 ± 0.94 h	1.97 ± 0.11 h	4.28 ± 0.33 h	10 ± 0.23 h	5.98 ± 0.4 h	10.2 ± 0.66 h	4.92 ± 0.78 h	9.79 ± 1.1 h
MSDNIRVGLIGYGYASKTFHAPLIAGTPGQELAVISSSDETKVKADWPTVTVVSEPKHLFNDPNIDLIVIPTPNDTHFPLAKAALEAGKHVVVDKPFTVTLSQARELDALAKSLGRVLSVFHNRRWDSDFLTLKGLLAEGVLGEVAYFESHFDRFRPQVRDRWREQGGPGSGIWYDLAPHLLDQAITLFGLPVSMTVDLAQLRPGAQSTDYFHAILSYPQRRVILHGTMLAAAESARYIVHGSRGSYVKYGLDPQEERLKNGERLPQEDWGYDMRDGVLTRVEGEERVEETLLTVPGNYPAYYAAIRDALNGDGENPVPASQAIQVMELIELGIESAKHRATLCLA	5.37 ± 0.71 h	4.69 ± 0.12 h	4.729 ± 0.033 h	5.58 ± 0.43 h	4.176 ± 0.0077 h	3.26 ± 0.26 h	5.54 ± 0.26 h	9.43 ± 2.6 h	5.05 ± 0.36 h	10.5 ± 0.45 h	5.48 ± 0.27 h	13.8 ± 0.79 h
MKTKLMTLQDATGFFRDGMTIMVGGFMGIGTPSRLVEALLESGVRDLTLIANDTAFVDTGIGPLIVNGRVRKVIASHIGTNPETGRRMISGEMDVVLVPQGTLIEQIRCGGAGLGGFLTPTGVGTVVEEGKQTLTLDGKTWLLERPLRADLALIRAHRCDTLGNLTYQLSARNFNPLIALAADITLVEPDELVETGELQPDHIVTPGAVIDHIIVSQESK	–	–	–	–	–	–	–	8.54 h	–	–	–	–
